Measured values published in patent publication US20200024330A1.

How the values were obtained:
Assay in all cases: cell-based or functional assay
[1] = target: HIV-1 MGRM-D-018 envelope glycoprotein (Env) on pseudovirus (HIV-1)
[2] = target: HIV-1 92UG005 envelope glycoprotein (Env) on pseudovirus (HIV-1)
[3] = target: HIV-1 CMU02 envelope glycoprotein (Env) on pseudovirus (HIV-1)
[4] = target: aMLV envelope protein on pseudovirus (negative control virus)
[5] = target: HIV-1 92UG024 envelope glycoprotein (Env) on pseudovirus (HIV-1)
[6] = target: HIV-1 92TH021 envelope glycoprotein (Env) on pseudovirus (HIV-1)
[7] = target: HIV-1 MGRM-AG-005 envelope glycoprotein (Env) on pseudovirus (HIV-1)
[8] = target: HIV-1 MGRM-D-001 envelope glycoprotein (Env) on pseudovirus (HIV-1)
[9] = target: HIV-1 Env of isolate Du172 (HIV-1)
[10] = target: HIV-1 Env of isolate PVO.4 (HIV-1)
[11] = target: HIV-1 JR-CSF Env Y318A (pseudovirus) (HIV-1 JR-CSF) (UniProt P20871)
[12] = target: HIV-1 Env of isolate AC10 (HIV-1)
[13] = target: HIV-1 Env of isolate DU156 (HIV-1)
[14] = target: HIV-1 JR-FL Env E168K (pseudovirus) (HIV-1 JR-FL)
[15] = target: HIV-1 Env of isolate ZM249 (HIV-1)
[16] = target: HIV-1 Env of isolate CAAN (HIV-1)
[17] = target: HIV-1 JR-CSF Env, wild type (pseudovirus) (HIV-1 JR-CSF) (UniProt P20871)
[18] = target: HIV-1 Env of isolate DU422 (HIV-1)
[19] = target: MuLV envelope protein (control pseudovirus) (MuLV)
[20] = target: HIV-1 92RW020 Env (pseudovirus) (HIV-1 92RW020)
[21] = target: HIV-1 JR-CSF Env I309A (pseudovirus) (HIV-1 JR-CSF) (UniProt P20871)
[22] = target: HIV-1 Env of isolate ZM233 (HIV-1)
[23] = target: HIV-1 Env of isolate THRO.18 (HIV-1)
[24] = target: HIV-1 Env of isolate REJ04541 (HIV-1)
[25] = target: HIV-1 Env of isolate CAP45 (HIV-1)
[26] = target: HIV-1 Env of isolate TR0.11 (HIV-1)
[27] = target: HIV-1 ADA Env (pseudovirus) (HIV-1 ADA)
[28] = target: HIV-1 Env of isolate ZM214 (HIV-1)

Binder | IC50, pseudovirus neutralization (TZM-bl) [9] | IC50, pseudovirus neutralization (TZM-bl) [10] | IC50 (ug/ml), neutralization [11] | IC50, pseudovirus neutralization (TZM-bl) [12] | IC50, pseudovirus neutralization (TZM-bl) [13] | IC50 (ug/ml), neutralization [14] | IC50, pseudovirus neutralization (TZM-bl) [15] | IC50, pseudovirus neutralization (TZM-bl) [16] | IC50 (ug/ml), neutralization [17] | IC50, pseudovirus neutralization (TZM-bl) [18] | IC50, pseudovirus neutralization (TZM-bl), control virus [19] | IC50 (ug/ml), neutralization [20] | IC50 (ug/ml), neutralization [21] | IC50, pseudovirus neutralization (TZM-bl) [22] | IC50, pseudovirus neutralization (TZM-bl) [23] | IC50, pseudovirus neutralization (TZM-bl) [24] | IC50, pseudovirus neutralization (TZM-bl) [25] | IC50, pseudovirus neutralization (TZM-bl) [26] | IC50 (ug/ml), neutralization [27] | IC50, pseudovirus neutralization (TZM-bl) [28] | further results
PGT-135 monoclonal antibody (antibody, V domains shown) VH: QLQMQESGPGLVKPSETLSLSCTVSGDSIRGGEWGDKDYHWGWVRHSAGKGLEWIGSIHWRGTTHYKESLRRRVSMSIDTSRNWFSLRLASVTAADTAVYFCARHRHHDVFMLVPIAGWFDVWGPGVQVTVSS VL: EIVMTQSPDTLSVSPGETVTLSCRASQNINKNLAWYQYKPGQSPRLVIFETYSKIAAFPARFVASGSGTEFTLTINNMQSEDVAVYYCQQYEEWPRTFGQGTKVDIK |  |  |  |  |  |  |  |  |  |  |  |  |  |  |  |  |  |  |  |  | IC50, pseudovirus neutralization [1]: 0.0433 µg/mL; IC50, pseudovirus neutralization [2]: > 10 µg/mL; IC50, pseudovirus neutralization [3]: > 10 µg/mL; IC50, pseudovirus neutralization [4]: > 10 µg/mL; IC50, pseudovirus neutralization [5]: 0.0139 µg/mL; IC50, pseudovirus neutralization [6]: > 10 µg/mL; IC50, pseudovirus neutralization [7]: > 10 µg/mL; IC50, pseudovirus neutralization [8]: > 10 µg/mL
PGT-123 monoclonal antibody (antibody, V domains shown) VH: QLHLQESGPGLVKPPETLSLTCSVSGASINDAYWSWIRQSPGKRPEWVGYVHHSGDTNYNPSLKRRVTFSLDTAKNEVSLKLVDLTAADSATYFCARALHGKRIYGIVALGELFTYFYMDVWGKGTAVTVSS VL: SSMSVSPGETAKISCGKESIGSRAVQWYQQKPGQPPSLIIYNNQDRPAGVPERFSASPDFRPGTTATLTITNVDAEDEADYYCHIYDARGGTNWVFDRGTTLTVL |  |  |  |  |  |  |  |  |  |  |  |  |  |  |  |  |  |  |  |  | IC50, pseudovirus neutralization [1]: 0.0047 µg/mL; IC50, pseudovirus neutralization [2]: 2.49 µg/mL; IC50, pseudovirus neutralization [3]: > 10 µg/mL; IC50, pseudovirus neutralization [4]: > 10 µg/mL; IC50, pseudovirus neutralization [5]: > 10 µg/mL; IC50, pseudovirus neutralization [6]: > 10 µg/mL; IC50, pseudovirus neutralization [7]: 0.104 µg/mL; IC50, pseudovirus neutralization [8]: 0.215 µg/mL
1503_H05 (PG16) (TCN-119) (antibody, V domains shown) VH: QEKLVESGGGVVQPGGSLRLSCLASGFTFHKYGMHWVRQAPGKGLEWVALISDDGMRKYHSDSMWGRVTISRDNSKNTLYLQFSSLKVEDTAMFFCAREAGGPIWHDDVKYYDFNDGYYNYHYMDVWGKGTIVTVSS VL: QSALTQPASVSGSPGQTITISCNGTRSDVGGFDSVSWYQQSPGKAPKVMVFDVSHRPSGISNRFSGSKSGNTASLTISGLHIEDEGDYFCSSLTDRSHRIFGGGTKVTVLG | < 0.01 µg/mL | 11 µg/mL | > 1 µg/mL | < 0.01 µg/mL | < 0.01 µg/mL | 0.002 µg/mL | < 0.01 µg/mL | 13.5 µg/mL | 0.001 µg/mL | 0.71 µg/mL | > 25 µg/mL | 0.02 µg/mL | > 1 µg/mL | < 0.01 µg/mL | 4.12 µg/mL | 0.22 µg/mL | < 0.01 µg/mL | 4.3 µg/mL | 0.003 µg/mL | > 25 µg/mL | 
1469_M23 (PG16) (TCN-118) (antibody, V domains shown) VH: QEKLVESGGGVVQPGGSLRLSCLASGFTFHKYGMHWVRQAPGKGLEWVALISDDGMRKYHSDSMWGRVTISRDNSKNTLYLQFSSLKVEDTAMFFCAREAGGPIWHDDVKYYDFNDGYYNYHYMDVWGKGTTVTVSS VL: QSALTQPASVSGSPGQTITISCNGTRSDVGGFDSVSWYQQSPGRAPKVMVFDVSHRPSGISNRFSGSKSGNTASLTISGLHIEDEGDYFCSSLTDRSHRIFGGGTKLTVLG | < 0.01 µg/mL | 21.2 µg/mL | > 1 µg/mL | < 0.01 µg/mL | < 0.01 µg/mL | 0.005 µg/mL | < 0.01 µg/mL | 17.7 µg/mL | 0.002 µg/mL | 0.97 µg/mL | > 25 µg/mL | 0.05 µg/mL | > 1 µg/mL | < 0.01 µg/mL | 7.01 µg/mL | 0.39 µg/mL | < 0.01 µg/mL | 7.52 µg/mL | 0.005 µg/mL | > 25 µg/mL | 
1456_A12 (PG16) (TCN-117) (antibody, V domains shown) VH: HEQLVEAGGGVVQPGGSLRLSCLASGFTFHKYGMHWVRQAPGKGLEWVALISDDGMRKYHSDSMWGRVTISRDNSKNTLYLQFSSLRVEDTAMFFCAREAGGPIWHDDVKYYDFNDGYYNYHYMDVWGKGTKVTVSS VL: QSALTQPASVSGSPGQTITISCNGTSRDVGGFDSVSWYQQSPGKAPKVMVFDVSHRPSGMSNRFSGSKSGNTASLTISGLHIEDEGDYFCSSLTDRSHRIFGGGTKLTVLG | < 0.01 µg/mL | 10.4 µg/mL | > 1 µg/mL | < 0.01 µg/mL | < 0.01 µg/mL | 0.003 µg/mL | < 0.01 µg/mL | 10.6 µg/mL | 0.001 µg/mL | 0.36 µg/mL | > 25 µg/mL | 0.05 µg/mL | > 1 µg/mL | < 0.01 µg/mL | 2.08 µg/mL | < 0.01 µg/mL | < 0.01 µg/mL | 3.05 µg/mL | 0.005 µg/mL | > 25 µg/mL | 
